# Assays:
# androgen receptor = target: T1, androgen receptor (Homo sapiens, UniProt P10275); assay: DHT-induced AR transactivation in PC-3(AR)2 cells, MMTV-Luc reporter; format: cell-based
# T1 construct: expressed in transfected cells; host or cells: PC-3(AR)2 prostate cancer cells
# T1 sequence (P10275 1-920): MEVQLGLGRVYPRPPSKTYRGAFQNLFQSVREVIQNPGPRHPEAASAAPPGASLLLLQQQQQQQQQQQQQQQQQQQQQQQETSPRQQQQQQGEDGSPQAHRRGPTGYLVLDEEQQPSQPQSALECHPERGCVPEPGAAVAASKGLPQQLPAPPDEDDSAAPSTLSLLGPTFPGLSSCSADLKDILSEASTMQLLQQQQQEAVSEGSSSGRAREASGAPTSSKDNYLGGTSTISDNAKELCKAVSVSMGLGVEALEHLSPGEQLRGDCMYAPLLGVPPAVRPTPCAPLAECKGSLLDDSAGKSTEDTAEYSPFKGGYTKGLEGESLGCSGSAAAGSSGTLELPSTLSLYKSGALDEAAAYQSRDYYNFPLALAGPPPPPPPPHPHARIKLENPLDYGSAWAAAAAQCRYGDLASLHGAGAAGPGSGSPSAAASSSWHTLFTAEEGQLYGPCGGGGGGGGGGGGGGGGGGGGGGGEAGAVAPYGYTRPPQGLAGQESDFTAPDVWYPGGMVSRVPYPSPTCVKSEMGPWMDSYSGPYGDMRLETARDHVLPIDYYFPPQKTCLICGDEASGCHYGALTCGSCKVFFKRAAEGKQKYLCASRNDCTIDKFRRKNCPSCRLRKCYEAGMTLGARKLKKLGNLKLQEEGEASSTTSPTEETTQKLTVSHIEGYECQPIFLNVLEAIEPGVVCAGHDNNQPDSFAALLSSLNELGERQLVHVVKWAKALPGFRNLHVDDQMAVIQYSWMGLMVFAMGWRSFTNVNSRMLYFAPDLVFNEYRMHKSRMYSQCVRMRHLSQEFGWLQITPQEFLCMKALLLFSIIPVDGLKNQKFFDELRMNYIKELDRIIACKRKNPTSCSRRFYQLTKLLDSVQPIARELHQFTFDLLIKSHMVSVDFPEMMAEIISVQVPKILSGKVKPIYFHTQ
# Experimental: (§1) Prostate cancer cells (stable transfected with androgen receptor) were transiently transfected with PSF-A expression vector together with a MMTV-Luc reporter vector. Cells were treated with either vehicle or 1 nM DHT for at least 24 hours. Luciferase activities were measured and normalized by β-galactosidase acitvity. Data shown in FIG. 10 are the mean of three separate experiments performed in triplicate ±S.E. Note: the empty vector pcDNA3 was added to the DNA mixture to ensure that the amounts of CMV promoter in all the transfection assays are equal.
# as §1, with “(stably” for “(stable”, “PSF-F” for “PSF-A”, “11” for “10”
# PC-3(AR)2 cells are PC-3 cells rendered androgen sensitive by stable transfection of a human androgen receptor cDNA. PC-3(AR)2 cells were transiently transfected with a constant AR expression vector together without or with increasing doses of PSF-A vectors. […]
# PR = target: T2, PR (Homo sapiens, UniProt P06401); assay: GST in vitro pulldown assay with 35S-labeled PSF and GST-PR fusion proteins; format: binding; conditions: 35S-labeled PSF
# T2 construct: made in house; host or cells: E. coli BL21(DE3)pLysS (GST-PR); rabbit reticulocyte lysate (35S His-PSF)
# T2 sequence (P06401 556-650): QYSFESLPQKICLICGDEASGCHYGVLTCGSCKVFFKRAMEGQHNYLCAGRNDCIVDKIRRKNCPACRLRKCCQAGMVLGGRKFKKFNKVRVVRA
# Experimental: FIG. 3. Mapping PSF and PR interaction site. (A) GST or GST-PR fusion proteins bound to glutathione-sepharose beads were incubated with ^35S-labeled PSF and binding of PSF was assessed by autoradiography. (B) GST or GST-PSF fusion proteins bound to glutathione-sepharose beads were incubated with ^35S-labeled PRB and binding of PRB was assessed by autoradiography. Input represents 10% of the material used for each sample in A and B. (C) GST-PSF fusion proteins used in assay B were separated on SDS gel and stained with commassie blue.
# For immunoprecipitation of the endogenous PR and PSF, T47D cells cultured in 150 mm dishes were lysed in 800 μl NETN buffer containing 150 mM NaCl plus protease inhibitor cocktail. Cell lysate were then incubated with 5 μg of PR or PSF, or control mouse IgG at 4° C. overnight, followed by the addition of 30 μl of protein A/G PLUS-agarose beads (Santa Cruz) for another two hours at 4° C. Resins were washed with NETN containing 250 mM NaCl and eluted with 1×Laemmli buffer. […] Gels were treated with Enhancer (NEN, Boston, US) dried and analyzed by autoradiography. • Cell culture and transient transfection: SHM cells and 293T cells were maintained in DMEM plus 5% FCS (Sigma) as described before (22). […] Luciferase activity was determined by using the luciferin reagent (Promega) according to manufacture's protocol. […]
molecule,measurement,setting,value
"polypyrimidine tract binding protein-associated splicing factor (protein, expressed from transfected His-PSF vector or in vitro translated) MSRDRFRSRGGGGGGFHRRGGGGGRGGLHDFRSPPPGMGLNQNRGPMGPGPGQSGPKPPIPPPPPHQQQQQPPPQQPPPQQPPPHQPPPHPQPHQQQQPPPPPQDSSKPVVAQGPGPAPGVGSAPPASSSAPPATPPTSGAPPGSGPGPTPTPPPAVTSAPPGAPPPTPPSSGVPTTPPQAGGPPPPPAAVPGPGPGPKQGPGPGGPKGGKMPGGPKPGGGPGLSTPGGHPKPPHRGGGEPRGGRQHHPPYHQQHHQGPPPGGPGGRSEEKISDSEGFKANLSLLRRPGEKTYTQRCRLFVGNLPADITEDEFKRLFAKYGEPGEVFINKGKGFGFIKLESRALAEIAKAELDDTPMRGRQLRVRFATHAAALSVRNLSPYVSNELLEEAFSQFGPIERAVVIVDDRGRSTGKGIVEFASKPAARKAFERCSEGVFLLTTTPRPVIVEPLEQLDDEDGLPEKLAQKNPMYQKERETPPRFAQHGTFEYEYSQRWKSLDEMEKQQREQVEKNMKDAKDKLESEMEDAYHEHQANLLRQDLMRRQEELRRMEELHNQEMQKRKEMQLRQEEERRRREEEMMIRQREMEEQMRRQREESYSRMGYMDPRERDMRMGGGGAMNMGDPYGSGGQKFPPLGGGGGIGYEANPGVPPATMSGSMMGSDMRTERFGQGGAGPVGGQGPRGMGPGTPAGYGRGREEYEGPNKKPRF",production/secretion of PSA,androgen receptor,blocks
same,androgen receptor activation of the MMTV promoter,"androgen receptor; PC-3(AR)2 cells, 1 nM DHT",blocks
same,binding to GST-PR fusion proteins containing the DBD domain,PR,bound strongly

# — patent US20070286806A1, “Methods and Compositions for Modulating a Steroid Receptor” (Mount Sinai Hospital, priority 2004, published 2007)
